Measurements taken from US20180326084A1 (Genmab, published 2018).

Tests used:
[1] = target: T1, human AXL with a cynomolgus monkey extracellular domain (ECD) (cynomolgus monkey (Macaca …, UniProt P30530 26-894)); experiment: flow cytometry, HEK293T cells with human AXL carrying cynomolgus ECD
T1 construct: Chimera on transfected HEK293T cells; also called cynomolgus AXL; cynomolgus AXL-ECD
T1 chain: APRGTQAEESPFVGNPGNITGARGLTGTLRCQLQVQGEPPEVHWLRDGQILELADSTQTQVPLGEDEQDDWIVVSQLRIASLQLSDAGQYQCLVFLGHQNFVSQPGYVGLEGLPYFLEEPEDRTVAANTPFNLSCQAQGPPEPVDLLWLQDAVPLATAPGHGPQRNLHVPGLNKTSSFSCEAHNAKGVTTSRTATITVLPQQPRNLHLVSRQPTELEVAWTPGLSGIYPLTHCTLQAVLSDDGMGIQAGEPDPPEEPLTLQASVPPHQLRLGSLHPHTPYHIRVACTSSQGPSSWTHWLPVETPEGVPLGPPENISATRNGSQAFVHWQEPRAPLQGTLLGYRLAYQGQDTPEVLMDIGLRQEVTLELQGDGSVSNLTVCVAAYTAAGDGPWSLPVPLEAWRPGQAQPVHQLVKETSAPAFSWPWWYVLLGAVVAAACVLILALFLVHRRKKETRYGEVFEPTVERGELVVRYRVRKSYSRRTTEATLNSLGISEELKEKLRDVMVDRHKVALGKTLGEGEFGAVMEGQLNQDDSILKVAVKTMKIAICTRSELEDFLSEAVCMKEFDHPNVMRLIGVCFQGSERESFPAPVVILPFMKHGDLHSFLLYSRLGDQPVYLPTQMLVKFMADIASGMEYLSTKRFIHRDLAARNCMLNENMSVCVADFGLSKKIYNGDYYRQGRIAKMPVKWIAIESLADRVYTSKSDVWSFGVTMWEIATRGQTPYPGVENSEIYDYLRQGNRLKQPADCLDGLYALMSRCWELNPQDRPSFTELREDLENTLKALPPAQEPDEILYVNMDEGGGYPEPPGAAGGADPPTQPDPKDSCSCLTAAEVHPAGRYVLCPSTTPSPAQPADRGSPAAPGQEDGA

[2] = target: T2, Homo sapiens AXL-Mus musculus Ig2 domain (p33-AXL-mIg2) (human-mouse chimera, UniProt P30530 26-894); experiment: flow cytometry, 1 µg/mL antibody, transfected HEK293F cells
T2 construct: Expressed in HEK293F cells; also called hsAXL-mmIg2; TH1021-mIg2
T2 chain: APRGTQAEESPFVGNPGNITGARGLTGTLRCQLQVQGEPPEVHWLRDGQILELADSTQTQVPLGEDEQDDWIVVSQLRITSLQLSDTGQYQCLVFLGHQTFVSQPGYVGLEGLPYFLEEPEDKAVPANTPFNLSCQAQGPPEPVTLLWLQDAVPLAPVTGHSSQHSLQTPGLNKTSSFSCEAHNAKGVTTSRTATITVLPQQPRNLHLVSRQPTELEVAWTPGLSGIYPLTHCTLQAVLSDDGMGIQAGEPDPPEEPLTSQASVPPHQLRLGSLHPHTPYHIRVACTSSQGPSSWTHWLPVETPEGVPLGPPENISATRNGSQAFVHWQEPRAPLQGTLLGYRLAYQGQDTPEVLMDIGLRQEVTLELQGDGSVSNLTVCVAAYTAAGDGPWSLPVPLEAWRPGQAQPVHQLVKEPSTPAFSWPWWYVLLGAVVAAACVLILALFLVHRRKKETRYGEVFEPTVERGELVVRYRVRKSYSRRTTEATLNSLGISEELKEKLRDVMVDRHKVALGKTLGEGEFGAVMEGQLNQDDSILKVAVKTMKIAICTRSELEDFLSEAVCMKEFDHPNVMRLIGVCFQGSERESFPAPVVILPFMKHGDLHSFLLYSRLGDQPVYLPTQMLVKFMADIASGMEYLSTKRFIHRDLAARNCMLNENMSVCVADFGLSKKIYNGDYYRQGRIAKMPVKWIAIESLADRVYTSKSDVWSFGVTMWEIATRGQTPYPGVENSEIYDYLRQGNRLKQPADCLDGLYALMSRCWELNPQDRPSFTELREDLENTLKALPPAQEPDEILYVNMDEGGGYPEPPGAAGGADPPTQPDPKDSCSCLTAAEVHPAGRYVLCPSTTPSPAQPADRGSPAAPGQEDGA

[3] = target: T3, Homo sapiens AXL-Mus musculus Ig1 domain (p33-AXL-mIg1) (human-mouse chimera, UniProt P30530 8-894); experiment: as above
T3 construct: Expressed in HEK293F cells; also called hsAXL-mmIg1; hsAXL-mmIgl
T3 chain: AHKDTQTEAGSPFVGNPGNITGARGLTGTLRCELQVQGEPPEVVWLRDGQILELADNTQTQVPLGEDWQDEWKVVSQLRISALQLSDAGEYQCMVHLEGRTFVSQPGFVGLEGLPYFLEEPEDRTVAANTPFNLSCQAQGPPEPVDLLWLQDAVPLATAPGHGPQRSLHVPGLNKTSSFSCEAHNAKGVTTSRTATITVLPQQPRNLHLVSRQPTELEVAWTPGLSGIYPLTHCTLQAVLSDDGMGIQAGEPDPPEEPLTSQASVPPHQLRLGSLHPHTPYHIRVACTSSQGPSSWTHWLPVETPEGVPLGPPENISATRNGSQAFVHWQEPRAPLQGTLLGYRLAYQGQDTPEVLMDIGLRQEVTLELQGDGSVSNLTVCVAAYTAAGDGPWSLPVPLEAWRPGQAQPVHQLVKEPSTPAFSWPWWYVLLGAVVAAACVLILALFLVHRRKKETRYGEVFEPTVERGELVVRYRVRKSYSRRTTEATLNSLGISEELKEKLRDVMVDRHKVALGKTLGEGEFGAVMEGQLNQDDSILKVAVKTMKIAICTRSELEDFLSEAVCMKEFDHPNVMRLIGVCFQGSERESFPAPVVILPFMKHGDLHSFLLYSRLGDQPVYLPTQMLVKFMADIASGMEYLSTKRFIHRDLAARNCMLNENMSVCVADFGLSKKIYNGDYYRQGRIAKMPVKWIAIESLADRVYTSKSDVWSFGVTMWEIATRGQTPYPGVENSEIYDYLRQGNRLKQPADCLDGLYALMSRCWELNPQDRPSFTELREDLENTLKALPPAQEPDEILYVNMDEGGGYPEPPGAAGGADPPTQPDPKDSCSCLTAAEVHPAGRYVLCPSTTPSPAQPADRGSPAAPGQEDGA

B1: IgG1-AXL-733 (antibody, V domains shown)
VH: QVQLVESGGGVVQPGRSLRLSCAASGFSFSTYAMHWVRQAPGKGLEWVAVISYDGDNKYSADSVKGRFTISRDNSKNTLYLQMNSLRAEDTAVYYCARGRKLGIDAFDIWGQGTMVTVSS
VL: AIQLTQSPSSLSASVGDRVTITCRASQGISSALAWYQQKPGKAPKLLIYDASSLESGVPSRFSGSGSGTDFTLTISGLQPEDFATYYCQQFNSYPFTFGPGTKVDIK
EC50 [1]: 0.254 mg/L
binding result [2]: binds
binding result [3]: binds

B2: IgG1-AXL-183 (antibody, V domains shown)
VH: QVQLQQWGAGLLKPSETLSLTCAVYGGSFSGYYWSWIRQPPGKGLEWIGEINQSGSTNYNPSLKSRVTISVDTSKNQFSLKLSSVTAADTSVYYCASGNWDHFFDYWGQGTLVTVSS
VL: DIQMTQSPSSVSASVGDRVTITCRASQGISSWLAWYQHKPGKAPKLLIYATSSLQSGVTSRFSGSGSGTDFTLTISSLQPEDFATYYCQQAKSFPWTFGQGTKVEIK
EC50 [1]: 0.309 mg/L
binding result [2]: binds
binding result [3]: binds

B3: IgG1-AXL-148 (antibody, V domains shown)
VH: EVQLLESGGGLVQPGGSLRLSCAASGFTFSSYAMTWVRQAPGKGLEWVSAISISGGSTFYADSVKGRFTISRDNSKNTLYLQMNSLRAEDTAVYYCRGYSGYVYDAFDFWGQGTMVTVSS
VL: DIQMTQSPSSLSASVGDRVTITCRASQGISNWLAWYQQKPEKAPKSLIYAASSLQSGVPSRFSGSGSGTDFTLTISSLQPEDFATYYCQQYNSYPLTFGGGTKVEIK
EC50 [1]: 0.152 mg/L
binding result [3]: binds

B4: IgG1-AXL-726 (antibody, V domains shown)
VH: QVQLQQWGAGLLKPSETLSLTCAIDGGSFSGYYWSWIRQPPGKGLEWIGEISHSGRTNYNPSLKSRVTISIDTSKNQFSLKLSSVAAADTAVYYCARFITMIRGAIITHFDYWGQGALVTVSS
VL: DIQMTQSPSSLSASVGDRVTITCRASQGISSWLAWYQQKPEKAPKSLIYAASSLQSGVPSRFSGSGSGTDFTLTISSLQPEDFATYYCQQYHSYPYTFGQGTKLEIK
EC50 [1]: 0.349 mg/L
binding result [2]: binds
binding result [3]: binds
